Molecular target: T1, SOX2 (Homo sapiens, UniProt P48431)
T1 construct: endogenous in cells; host or cells: nuclear extract of GSC7 and GSC328 (patient-derived glioblastoma stem cell lines)
Experiment: Biotinylated enhancer pull down with nuclear extract and mass spectrometry
Assay type: binding
Details: normalised to random sequence 599
Method: The oligo was PCR-amplified using biotinylated primers. The PCR product was then SPRI purified to remove biotinylated primer dimers. These dsDNA fragments were incubated with nuclear extract from GSC7 and GSC328. They were then bound to streptavidin magnetic beads, washed three times and the frozen beads were sent for mass spectrometry analysis.
All the buffers were prepared the day before, passed through a […] filter (except the dialysis buffer) and left at 4° C. overnight. DTT and protease inhibitors were added just before use. The cells were scraped on the media and collected on 50 ml falcons, which were spun at 1350 rcf 5 minutes at 4° C. The pellet was resuspended in 50 ml of ice cold PBS, an aliquot was taken for cell counting, and spun again spun at 1350 rcf 5 minutes at 4° C. The pellet was then resuspended in 5 ml per 40 million cells of ice cold buffer A (10 mM HEPES pH 7.9, 1.5 mM MgCl2, 10 mM KCl, 0.5 mM DTT, protease inhibitors (Complete, Roche, 11697498001)) and incubated on ice for 10 min. The cell suspension was transferred to a glass Dounce homogenizer and dounced 40 times on ice. The cell suspension was transferred to a falcon and centrifuged at 1350 rcf for 10 min at 4° C. […] The supernatant was collected into new 1.5 ml tubes and quantified (Pierce BCA Protein Assay Kit, Thermo Scientific, Cat 23225). […]

T1 sequence (P48431 whole entry): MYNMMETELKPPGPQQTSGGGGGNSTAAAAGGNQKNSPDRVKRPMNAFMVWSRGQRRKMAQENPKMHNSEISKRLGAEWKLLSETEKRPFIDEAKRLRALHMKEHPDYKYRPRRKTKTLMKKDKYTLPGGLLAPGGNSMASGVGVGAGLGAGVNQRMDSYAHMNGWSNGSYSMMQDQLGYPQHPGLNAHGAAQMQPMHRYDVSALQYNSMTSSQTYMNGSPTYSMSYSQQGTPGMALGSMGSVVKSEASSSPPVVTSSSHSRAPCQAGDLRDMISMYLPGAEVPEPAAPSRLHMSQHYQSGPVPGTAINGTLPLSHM

B1: ID1101: enhancer fragment, SEQ ID NO: 4 (nucleic acid)
DNA: GTGAGTGTGACTCACATGCTGGCATCAGAGCCCCTCTTAGAGCTTAGAACACTGGGCCTCTGTCAGGCAAAGAAAAGGAGTCCCTATGAATAGCCATCTCCACAAATAGCAGTTACTGTCACTTCTTAAAAGACACAAGCATGGCTGGAGACCGGCACTG
**Q.** Which results are given for B1?
**A.** SOX2 enrichment in pull down (mass spectrometry) (G7 nuclear extract): 4.4 fold; SOX2 enrichment in pull down (mass spectrometry) (GSC328 nuclear extract): 23 fold

— patent publication US20240092847A1, “FUNCTIONAL NUCLEIC ACID MOLECULE AND METHOD” (The University Court of The University of Edinburgh, priority 2021, published 2024)
